Assay: yeast display, Sf9 membrane polyspecificity reagent, FACS + sequencing; frameworks hold sequencing errors
Outline: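 Galactose-induced (36–48 hours) yeast carrying a synthetic nanobody display library were exposed to 10% biotinylated, detergent-solubilized Sf9 membrane reagent at 4 °C for 1 hour. FACS followed streptavidin microbead enrichment, using low and high (top ~1%) gates for expression (anti-HA) and reagent binding (streptavidin). Colony PCR, MiSeq 2 × 250 sequencing and CDR-length filtering followed. Labels for polyreactivity reflect the gate of origin.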

Row | Sequence | polyreactivity (PSR sort gate)
1 | QVQLVESGGGLVQAGGSLRLSCAPSGIIAKHNAMGWYRQAPGKERELVAAITSGSITNYADSVKGRFTISRDNAKNTLYLQMNSLKPEDTAVYYCAKRVDAYGWWGRRSGVLSDYWGQGTQVTVSS | low polyreactivity
2 | QVQLVESGGGLVQAGGSLRLSCAPSGIILGYYAMGWYRQAPGKERELVAAISSGGRTYYADSVKGRFTISRDNAKNTVYLQMNSLKPEDTAVYYCAADDTRGREEYDYWGQGTQVTVSS | high polyreactivity
3 | QVQLVESGGGLVQAGGSLRLSCAPSGIISIFNVMGWYRQAPGKERELVASITGRGGSTFYADSVKGRFTISRDNAKNTVYLQMNSLKPEDTAVYYCATDTGYTYPVTGLYDYWGQGTQVTVSS | low polyreactivity
4 | QVQLVESGGGLVQAGGSLRLSCAPSGITFRQFTMGWYRQAPGKERELVAAITSSGRTYYADSVKGRFTISLDNAKNTVYLQMNSLKPEDTAVYYCAAGVGGAAHPVSYFTYDYWGQGTQVTVSS | high polyreactivity
5 | QVQLVESGGGLVQAGGSLRLSCAPSGITFSYSAMGWYRQAPGKERELVAAISGSGTSTYYADSVKGRFTISRDNAKNTVYVQMNSLKPEVTAVYYCAAKGRKSVYSRNSWGQGTQVTVSS | high polyreactivity
6 | QVQLVESGGGLVQAGGSLRLSCAPSGITFYKYAMGWYRQAPGKERELVATISRRGGTTYYADSVKGRFTISRDNAKNTVYLQMNSLKPEDTAVYYCNADSRTYRYYWSYGYWGQGTQVTVSS | high polyreactivity
7 | QVQLVESGGGLVQAGGSLRLSCAPSGLIFYGYAMGWYRQAPGKERELVAAISCSGGRTYYADSVKGRFTISRDNAKNTVYLQMNSLKPEDTAVYYCNVRNRYRPYLPFWPDDYWGQGTQVTVSS | high polyreactivity
8 | QVQLVESGGGLVQAGGSLRLSCAPSGLIFYRYAMGWYRQAPGKERELVAAITRGGSTHYADSVKGRFTISRDNAKFTVYLQMNSLKPEDTAVYYCAATFKGRIYRYEYWGQGTQVTVSS | high polyreactivity
9 | QVQLVESGGGLVQAGGSLRLSCAPSGLTFDVYAMGWYRQAPWKQRELVAAISSIGGSTYYADSVKGRFTISRDTAKNTVYVQMNSLKPEDTAVYYCAAAISLYSYDYWGQGTQVTVSS | low polyreactivity
10 | QVQLVESGGGLVQAGGSLRLSCAPSGLTFKDYTMGWYRQAPGKERELVAAISKSGGRTYYADSVKGRFTISRDNAKNTVYLQMNSLKPEDTAVYYCNADSRTYRYYWSYGYWGQGTQVTVSS | high polyreactivity
11 | QVQLVESGGGLVQAGGSLRLSCAPSGLTYRRYTMGWYRQAPGKEREFVAAISWGGDSTYYADSVKGRFTISRDNAKNTVYLQLTSLKPEDTAVYYCAADFLYIYNYWGQGTQVTVSS | high polyreactivity
12 | QVQLVESGGGLVQAGGSLRLSCAPSGRIFFHYAMGWYRQAPGKERELVAAISRRGGNTYYADSVKGRFTISRDNAKNTVYLQMNRLKPEDTAVYYCAAQYRVGYDYWGQGTQVTVSS | high polyreactivity
13 | QVQLVESGGGLVQAGGSLRLSCAPSGRIFHQYAMGFYRKSPGKERELVAAITWSGGSTHYADSVKGRYTISRDNAKNTVYLQLNSLKPEDTAVYYCAARKSGGLLDYWGQGTQVTVSS | low polyreactivity
14 | QVQLVESGGGLVQAGGSLRLSCAPSGRIFPGYAMGWYRQAPGKERELVAAISTNGGRTYYADSVKGRFTISRDNAKNTVYLQMNSLKPEDTAVYYCNAARAVYTQKRFDSWGQGTQVTVSS | high polyreactivity
15 | QVQLVESGGGLVQAGGSLRLSCAPSGRIFQWYAMGWYRQAPGKERELVAAIRNGGTTNYADSVKGRFTISRDNAKNTVYLQMNSVIPVDTAVYYCNADKYRTWDFQPRYPGGYWGQGTQVTVSS | low polyreactivity
16 | QVQLVESGGGLVQAGGSLRLSCAPSGRIFSHYAMGWYRQAPGKERELVAAITSDGSTNYADSVKGRFTISRDNAKKTVYLQMNSLKPEDTAVYYSAKYVHIPDYYYLFGSYDYWGQGTQVTVSS | low polyreactivity
17 | QVQLVESGGGLVQAGGSLRLSCAPSGRIFYGYAMGWYRQAPGKERELVAAITSGSRTNYADSVKGRFTISRDNAKNTVYLQMNSLKPEDTAVYYCHSLYGSYLYSLVHTSRYDYWGQGSQVTVSS | low polyreactivity
18 | QVQLVESGGGLVQAGGSLRLSCAPSGRIIYRYAIGWYRQAPRKETDLVAAITIGGRTNYADSVKGRFTISRDNANNPVYLEMISLKPEDTAVYYCAVVLYTRYPPRVRYYYWGQGTQVTVSS | high polyreactivity
19 | QVQLVESGGGLVQAGGSLRLSCAPSGRISFRYAMGWYRQAPGKERELVAAINRGGITNYADSVKGRFTISRDNAKNTVYLQMNSLKPEDTADYYCAAEGFYDYYNGFDYSGQGTQVTVSS | high polyreactivity
20 | QVQLVESGGGLVQAGGSLRLSCAPSGRTFDQYAMGWYRQAPGKERELVADITWSGGTTRYADSVKGRFTISRDHAKNTVYLQMNSLKPEDTAVYYCAVEVTWGYNYWGQVTQVTVSS | low polyreactivity
21 | QVQLVESGGGLVQAGGSLRLSCAPSGRTFGRYAMGWYRQAPGKERELVAAITRSGGSTYYADSVKGRFTISRDIAKNTVYLQMNSLKPEDTAVYYCNAGWRLGRGYWGQGTEVTVSS | high polyreactivity
22 | QVQLVESGGGLVQAGGSLRLSCAPSGRTFGVYAMGWYRQAPGKERELVATISFNVASTYADSVKGRFTISRDNAKNTVYLQMNSLKPEDTAVYYCAVTAVRPLPLDSGYDYWGQGTQVTVSS | low polyreactivity

Row | Sequence | polyreactivity (PSR sort gate)
23 | QVQLVESGGGLVQAGGSLRLSCAPSGRYYAMGWNRQAPGKEREMVAAISSGGSTNYADSVKGRFTISRDNAKNTVYLQMNSLKPEDTAVYYCAALIRQLRYYLYYYWGQGTQVTVSS | high polyreactivity
24 | QVQLVESGGGLVQAGGSLRLSCAPSGSIFAQYAMGWYRQAPGKERELVATISSVGSTNYADSVKGRFTISRDNAKNTVYLQMNSLKPEDTAVYYCNAVRSGWGYFYGLNYWGQGTQVTVSS | low polyreactivity
25 | QVQLVESGGGLVQAGGSLRLSCAPSGSIFDCNAMGWYRQAPGKERELVAAISVSGGSTYYADSVKGRFTISRDNAKNTVYLQMNSLKPEDKAVYYCAAETWTDGWYYDYWGQGTQVTVSS | high polyreactivity
26 | QVQLVESGGGLVQAGGSLRLSCAPSGSIFGSYAMGWYRQAPGKERELVAAIRRSSASTYYADSVKGRFTISRDNAKNTVYLQMNSLKPEDTAVYYCATQSYSYYGYRYRYAAYDYWGQGTQVTVSS | high polyreactivity
27 | QVQLVESGGGLVQAGGSLRLSCAPSGSIFGYYTMGCYRQAPGKEREFVAAISYSGGSTYYADSVKGRFTISRDNANNTVYLQMNSLKPEDTAVYYCAARLYYFRGFKYYYWGQGTQVTVSS | low polyreactivity
28 | QVQLVESGGGLVQAGGSLRLSCAPSGSIFHYYAMGWYRQAPGKERELVAAISWSGGRTNYADSVKGRFTISSDNAKNTVYLQMNSLKPEDTAVYYCAAGNSFSDRGHRVYFQYYYWGQGTQVTVSS | high polyreactivity
29 | QVQLVESGGGLVQAGGSLRLSCAPSGSIFIRNAMGWYRQAPGKERELVAAISGSGSSTYYADSVKGRFTISRDNAKNTVYLQMNSLKPEDTAVYYCNTDRTHSYQYGGYDYWGQGTQVTVSS | low polyreactivity
30 | QVQLVESGGGLVQAGGSLRLSCAPSGSIFRGYAMGWYRQAPGKERELVAAISSGGSTYYADSVKGRFTISRDNAKNTVDLQMNSLKPEDTAVYYCATSTYAYRRISYYSWGQCTQVTVSS | high polyreactivity
31 | QVQLVESGGGLVQAGGSLRLSCAPSGSIFRLYAMGWYRQAPGKERELVAAITSSGGRTYYADSVKGRFTISRDNAKNTVYLQINSLKPVDTAVYYCAAVGNRGDDYYWGQGTQVTVSS | high polyreactivity
32 | QVQLVESGGGLVQAGGSLRLSCAPSGSIFRWYAMGWYRQAPGKERELVAAITSGGSTYYADSVKGRFTISRDNAKNTVYVQMNSLKPEDTAVYYCNAAKLASHTYDYWGQGTQVTVSS | low polyreactivity
33 | QVQLVESGGGLVQAGGSLRLSCAPSGSILGSNAMGGYRQAPGKERELVAAITSSGGSTYYADSVKGRFTISRDNAKNTVYLQMNSLKPEDTAVYYCNADATDSYPEKDYHDSWGQGTQVTVSS | low polyreactivity
34 | QVQLVESGGGLVQAGGSLRLSCAPSGSIYDDYAMGWYRQAPGKERELVAAISSSGTSTYYADSVKGRFTISRDNAKNTVYLQMIRLKPEDTAGYYCAARSAILKSGYLMDYWGQGTLVTVSS | low polyreactivity
35 | QVQLVESGGGLVQAGGSLRLSCAPSGSTFGSNAMGWYRQAPGKERELVAAINSGDSTSYADSVKGRFTISRDNAKNTVYLQMNSLKPEDTAGYYCATRSYTFVWRHDYWGQGTQVTVSS | low polyreactivity
36 | QVQLVESGGGLVQAGGSLRLSCAPSGSTFGWYAMGWYRQAPGKESELFAAITGDSASTYYADSVKGRFTISRDNAKNTVYLQMNSLKQEDTAVYYCAATKFSDFAYEAVIGYGYWGQGTQVTVSS | low polyreactivity
37 | QVQLVESGGGLVQAGGSLRLSCAPSGSTFSGYAMGWYRQAPGKEREFVATISISGCSTYYADSVKGRFTISRDNAKNTVYLQMNSLKPEDTAVYYCAKDSGSYRVGIYEPFPYGYWGQGTQVTVSS | low polyreactivity
38 | QVQLVESGGGLVQAGGSLRLSCAPSGSTFSHNAMGWYRQAPGKEREFVAAISWSGGGTYADSVKGRFTISRDYAKNTVYLQMNSLKPEDTAVYYCNKVSYRSSSSSWFDYWGQGTQVTVSS | low polyreactivity
39 | QVQLVESGGGLVQAGGSLRLSCAPSGSTFTHNALGWYRQAPGKERELVAAINNRGGTTYYADSVKGRFTISRDNAKNTVLLQMNSLKPEDIAVYYCNARYHYGRYGYWGQGTQVTVSS | high polyreactivity
40 | QVQLVESGGGLVQAGGSLRLSCAPSGSTFYPYAMGWYRQAPGKEREFVAAIRSSGTSTYYADSVKGRFTISRDNAKNTVYLQMNSLKPEDTAVYYCAARVRGYSVTRTKPASIGGGSWGQGTQVTVSS | high polyreactivity
41 | QVQLVESGGGLVQAGGSLRLSCAPSGSTFYRYAMGWYRQAPGKERELVAAISSSGGRTYYADSVKGRFTISRDNAKNTDYLQMNSLKPEDTAVYYCAADYTKHYWGQGTQVTVSS | high polyreactivity
42 | QVQLVESGGGLVQAGGSLRLSCAPSGSTSYLYAMGWYRQAPGKERELVATITTRSGSTYYADSVKGRFTISRDNAKNTVYIQMNSLKPEDTAVYYCAARWISVWSEGAEHDYWGQGTQVTVSS | low polyreactivity
43 | QVQLVESGGGLVQAGGSLRLSCAPSRFIFFFYAMGWYRQAPGKERELVAAISDGVSTYYADSVKGRFTISRDNAKNTVYLQKNSLKPDDTAVYYCAVSRGDDPEFDYWGKGTQVTVSS | low polyreactivity

— the nanobody polyreactivity screen of Harvey et al. (2022)
